According to paper PMC3315491:

What follows are sequences tested against T1, EspR (UniProt P9WJB7) (assay: EMSA).
T1 sequence: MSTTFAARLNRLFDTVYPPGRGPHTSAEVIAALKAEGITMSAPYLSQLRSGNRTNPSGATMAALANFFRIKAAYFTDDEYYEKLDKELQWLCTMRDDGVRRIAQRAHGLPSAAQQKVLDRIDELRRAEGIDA
“TCAGGATGACCGTGTCGGGCGGATGCGGCCGACTCCGGGCAACCAGCAGCCAACGGAGATTCGCCGAGAGCCTCCTTTGCTGCCTGGGTCCGCACAGCGCTCGTCAGGCGA (double strand) [espR peak b EMSA probe]” was tested, and the binding was “binds”.
In the case of “GCTTGTCCCAAAGCTCTTTCAGGCCGTTGAGCGCGTTTGTGATGAACTCCCACACTTCTCCGAGGGTGCCCTTGATGATGTCCGCCACATCCGAAATGAT (double strand) [espA ORF negative control probe]”, the binding is reported as “no binding”.
For “TGCGTCGGTTAGTCTCTTTTTCGACCTTGGGGCGCGGAGGGTCGTTATGGTGTGTCACAGTGCTTTGCTGTCAAAGGCATTGGCGGTGCCGACCAAGCGACACT (double strand) [rv1490 peak probe]”, the binding was “binds”.
“ACTTGAGTTCTTCAGCAATGATGCATGCACGACTGTAGACCTGCGACCAAGTCAAGCTGTCAGCAAATCCCTTGGGGTCGGATCCGTAGTCGATGTACGTATATGCAGTGCTGTCAGGCT (double strand) [fadD26 peak probe]” was tested, and the binding was “binds more weakly”.
For “GAAAACCGCCCCAGTTGCGGTGTGCGCTAGTTAACATCGCAACTACATATCAGCAAATCAGGGAGAGGAAACCGTGTCGTTTGTGTTGGTGTCTCCGTCGCA (double strand) [pe_pgrs19 peak probe]”, the binding was “binds”.
With “GCTCATCGATGTGACCTCCACCGGGCTCCAAGAGCAAACGGTTATCTGTATGTATTTGCTGATCATGGTAGCGACAGTTGTGTCCACAACCAAGTGCAAACCTGAGCGGATT (double strand) [espR peak a EMSA probe]” the binding was “binds”.
In the case of “ACCTCAACGACAATTTGCCAGAGCTAGTCAGCGACATAGAAGACAAAACACTCCAATGGCATGATCGAGCTTAGCTATGCTCCGGATGTAGCTGGCCGAAGAT (double strand) [rv2929 peak probe]”, the binding is reported as “binds”.
